Measurements reported in publication PMC4791394.

Target: taxol-stabilized microtubules
Test: co-sedimentation; normalized COS7 lysates in PEM buffer incubated with taxol-stabilized microtubules with 2.5 mM AMP-PNP, RT 30 min; 100,000 x g 40 min through a taxol-supplemented cushion; supernatant and pellet blotted for KIF5 and tubulin

KIF5C(1-560)^S176D-3xmCit (from UniProt P28738 1-560) (domain or fragment)
percent co-purified with microtubules: 60%

KIF5C(1-560)^WT-3xmCit (from UniProt P28738 1-560) (domain or fragment)
percent co-purified with microtubules: 100%

KIF5C(1-560)^S176A-3xmCit (from UniProt P28738 1-560) (domain or fragment)
percent co-purified with microtubules: 100%
